{
  "source": "paper PMC4132707",
  "origin": "cited, not measured here",
  "key": {"[1]": {"biological_target": "H1K26me3 peptide (Homo sapiens) (UniProt P10412)", "sequence (P10412 2-219)": "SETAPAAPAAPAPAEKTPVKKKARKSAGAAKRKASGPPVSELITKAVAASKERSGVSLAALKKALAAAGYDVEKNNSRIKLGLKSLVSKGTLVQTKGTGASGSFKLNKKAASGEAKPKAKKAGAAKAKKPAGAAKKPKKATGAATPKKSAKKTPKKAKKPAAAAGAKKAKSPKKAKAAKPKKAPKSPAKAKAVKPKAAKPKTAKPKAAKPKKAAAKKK"}, "[2]": {"biological_target": "H3K27me3 peptide (Homo sapiens) (UniProt P68431)"}},
  "data": [
    {"substance": "EED (from UniProt O75530)", "values": [
      {"measurement": "Kd", "setting": "[1]", "value": "> 20", "unit": "µM"},
      {"measurement": "Kd", "setting": "[2]", "value": "> 20", "unit": "µM"}
    ]}
  ]
}
